Results: patent US20240400638A1, “COMBINATION OF RELAXIN AND VASOPRESSIN ANALOGUES FOR TREATMENT OF RENAL DISORDERS OR CONDITIONS” (River 2 Renal Corp., priority 2021, published 2024)
Numbered stars: 1 amine (or outer) side, 2 acyl side, 3 side chain; on linkers, the order of the positions; unused ones are H or OH. Square brackets hold non-standard residues; d marks the D form. Side chains are listed from the residue outwards. * marks the point of attachment. TTDS = 4-[3-[2-[2-(3-aminopropoxy)ethoxy]ethoxy]propylamino]-4-oxo-butanoyl; γGlu = O=C(O)[C@H](CCC(=O)[*:2])N[*:1]; Stearoyl = CCCCCCCCCCCCCCCCCC(=O)*; Palmitoyl = CCCCCCCCCCCCCCCC(=O)*; AEEA = NCCOCCOCC(=O)O; Aib = CC(C)(N)C(=O)O

T1: human RXFP1 (human, UniProt Q9HBX9 1-757)
T1 sequence (looked up): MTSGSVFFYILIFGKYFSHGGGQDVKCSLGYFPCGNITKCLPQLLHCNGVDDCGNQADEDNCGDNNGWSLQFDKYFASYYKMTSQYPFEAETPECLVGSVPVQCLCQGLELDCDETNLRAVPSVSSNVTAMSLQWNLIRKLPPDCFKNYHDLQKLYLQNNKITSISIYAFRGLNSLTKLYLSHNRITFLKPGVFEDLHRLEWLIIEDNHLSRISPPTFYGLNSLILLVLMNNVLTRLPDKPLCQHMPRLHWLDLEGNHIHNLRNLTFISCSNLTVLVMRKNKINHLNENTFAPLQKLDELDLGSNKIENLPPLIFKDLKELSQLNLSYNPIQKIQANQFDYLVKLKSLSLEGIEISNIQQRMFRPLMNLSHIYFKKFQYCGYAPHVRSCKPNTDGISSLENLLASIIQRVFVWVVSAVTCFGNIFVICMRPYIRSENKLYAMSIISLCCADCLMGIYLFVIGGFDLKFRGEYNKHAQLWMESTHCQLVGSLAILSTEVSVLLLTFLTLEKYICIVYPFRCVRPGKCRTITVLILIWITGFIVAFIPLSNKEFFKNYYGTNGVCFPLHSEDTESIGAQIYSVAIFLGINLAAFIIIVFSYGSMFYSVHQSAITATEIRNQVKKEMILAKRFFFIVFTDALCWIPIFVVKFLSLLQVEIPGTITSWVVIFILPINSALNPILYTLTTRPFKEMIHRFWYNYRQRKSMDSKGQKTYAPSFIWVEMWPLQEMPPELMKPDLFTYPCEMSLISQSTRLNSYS


biological target: T1, human RXFP1; assay: cell-based or functional assay

| Binder | EC50 (nM), OVCAR 5 cells (cAMP) [nM] | EMax, OVCAR 5 cells (cAMP) [%] |
| --- | --- | --- |
| Ac-LEGREKVRAK(Ac)I[Aib][Aib]EGK([TTDS-TTDS-TTDS-γGlu-γGlu-γGlu-γGlu-Palmitoyl])STWS[Aib]RKK(Ac)-NH2 [Relaxin peptide analogue of SEQ ID NO: 62] | 0.6 | 98 |
| Ac-LEGREKVRK(Ac)QI[Aib][Aib]EGK([TTDS-TTDS-TTDS-γGlu-γGlu-γGlu-Palmitoyl])STWS[Aib]RKK(Ac)-NH2 [Relaxin peptide analogue of SEQ ID NO: 65] | 1.19 | 95 |
| Ac-LEGREKVRAK(Ac)I[Aib][Aib]EGK([TTDS-TTDS-TTDS-TTDS-γGlu-γGlu-γGlu-Stearoyl])STFS[Aib]RKK(Ac)-NH2 [Relaxin peptide analogue of SEQ ID NO: 59] | 0.09 | 99 |
| Ac-LEGREKVRAK(Ac)I[Aib][Aib]EGK([TTDS-TTDS-TTDS-γGlu-γGlu-γGlu-Palmitoyl])SQWS[Aib]RKK(Ac)-NH2 [Relaxin peptide analogue of SEQ ID NO: 63] | 1.45 | 97 |
| Ac-LEGREKVRAK(Ac)I[Aib][Aib]EGK([AEEA-AEEA-AEEA-AEEA-γGlu-γGlu-γGlu-Palmitoyl])STWS[Aib]RKK(Ac)-NH2 (SMILES CCCCCCCCCCCCCCCC(=O)N[C@@H](CCC(=O)N[C@@H](CCC(=O)N[C@@H](CCC(=O)NCCOCCOCC(=O)NCCOCCOCC(=O)NCCOCCOCC(=O)NCCOCCOCC(=O)NCCCC[C@H](NC(=O)CNC(=O)[C@H](CCC(=O)O)NC(=O)C(C)(C)NC(=O)C(C)(C)NC(=O)[C@@H](NC(=O)[C@H](CCCCNC(C)=O)NC(=O)[C@H](C)NC(=O)[C@H](CCCNC(=N)N)NC(=O)[C@@H](NC(=O)[C@H](CCCCN)NC(=O)[C@H](CCC(=O)O)NC(=O)[C@H](CCCNC(=N)N)NC(=O)CNC(=O)[C@H](CCC(=O)O)NC(=O)[C@H](CC(C)C)NC(C)=O)C(C)C)[C@@H](C)CC)C(=O)N[C@@H](CO)C(=O)N[C@H](C(=O)N[C@@H](Cc1c[nH]c2ccccc12)C(=O)N[C@@H](CO)C(=O)NC(C)(C)C(=O)N[C@@H](CCCNC(=N)N)C(=O)N[C@@H](CCCCN)C(=O)N[C@@H](CCCCNC(C)=O)C(N)=O)[C@@H](C)O)C(=O)O)C(=O)O)C(=O)O) [Relaxin peptide analogue of SEQ ID NO: 5] | 9.1 | 85 |

Continued, values first:

| EC50 (nM), OVCAR 5 cells (cAMP) [nM] | EMax, OVCAR 5 cells (cAMP) [%] | Binder |
| --- | --- | --- |
| 0.52 | 95 | Ac-LEGREKVRAK(Ac)I[Aib][Aib]EGK([TTDS-TTDS-TTDS-γGlu-γGlu-γGlu-Palmitoyl])SRWS[Aib]RKK(Ac)-NH2 [Relaxin peptide analogue of SEQ ID NO: 64] |
| 0.1 | 97 | Ac-LEGREKVRAK(Ac)I[Aib][Aib]EGK([TTDS-TTDS-TTDS-γGlu-γGlu-γGlu-Stearoyl])STFS[Aib]RKK(Ac)-NH2 [Relaxin peptide analogue of SEQ ID NO: 61] |
| 0.15 | 95 | Ac-LEGREKVRAK(Ac)I[Aib][Aib]EGK([TTDS-TTDS-γGlu-γGlu-γGlu-Stearoyl])STFS[Aib]RKK(Ac)-NH2 [Relaxin peptide analogue of SEQ ID NO: 60] |
| 0.27 | 95 | Ac-LEGREKVRAK(Ac)I[Aib][Aib]EGK([TTDS-TTDS-γGlu-γGlu-γGlu-Stearoyl])STWS[Aib]RKK(Ac)-NH2 [Relaxin peptide analogue of SEQ ID NO: 6] |
| 1.5 | 99 | Ac-LEGREKVRAK(Ac)I[Aib][Aib]EGK([TTDS-TTDS-TTDS-γGlu-γGlu-γGlu-Palmitoyl])STWS[Aib]RKK(Ac)-NH2 [Relaxin peptide analogue of SEQ ID NO: 1] |
